Test results from article PMC4562236.

Columns and labels:
[1] = test system: T1, His-ArsR (Bacillus sp. CDB3), ORF:1234e343; assay: EMSA; details: 10 mM Tris-HCl pH 7.6, 80 mM KCl, 0.2 mM EDTA, 0.2 mM DTT, 10% glycerol, 0.75 µM BSA, 30 µL, on ice 30 min; 6% native acrylamide gel in TBE pH 8.3
T1 sequence: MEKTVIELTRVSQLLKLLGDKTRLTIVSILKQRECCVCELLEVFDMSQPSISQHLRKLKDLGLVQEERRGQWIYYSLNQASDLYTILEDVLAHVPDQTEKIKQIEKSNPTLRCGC

[2] = test system: T2, His-ArsD (Bacillus sp. CDB3), ORF:bd8c364d; assay: EMSA; details: 10 mM Tris-HCl pH 7.6, 80 mM KCl, 0.2 mM EDTA, 0.2 mM DTT, 10% glycerol, 0.75 µM BSA, 30 µL, on ice 30 min; 6% native acrylamide gel in TBE pH 8.3
T2 sequence: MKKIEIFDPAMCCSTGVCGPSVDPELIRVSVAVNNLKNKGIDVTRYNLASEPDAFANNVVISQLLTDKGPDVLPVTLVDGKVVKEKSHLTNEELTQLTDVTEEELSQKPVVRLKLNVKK

Row | Sequence | binding [1] | binding [2]
1 | TGAGACTGCTATGAAAGAAAACGGTGTTTCAACATTACGTTTTACATTTGATGGTGCTGGATGCTGTGGCCCTAGTTACGGTATTAATTTAGGTGAAGCACAAGAAAATGATGTCACAGAAACAGTCTAGAC (double strand) [proN] | no binding | 
2 | TTCAGTTGAATATATAAGCGGTTAATTATATACTTATTTCAAGAGGGAGAGAAAATTAAATATGAATCCATTTAATGAATATTACGTTTAATTTTTACTCAACATATAAGTATATGCTTATGCAATTATGAAAAGGAGGTATAGATATGGCTCTAGATA (double strand) [proR] | binds | no binding
